The record followed here is PMC3090473 (Methods (San Diego, Calif.), 2010).

This data set deals with the molecule itself. Kind of data set: AUC.

B1: Un-tagged Gal80 protein (natural protein, Saccharomyces cerevisiae, UniProt P04387 1-435, looked up)
chain: MDYNKRSSVSTVPNAAPIRVGFVGLNAAKGWAIKTHYPAILQLSSQFQITALYSPKIETSIATIQRLKLSNATAFPTLESFASSSTIDMIVIAIQVASHYEVVMPLLEFSKNNPNLKYLFVEWALACSLDQAESIYKAAAERGVQTIISLQGRKSPYILRAKELISQGYIGDINSIEIAGNGGWYGYERPVKSPKYIYEIGNGVDLVTTTFGHTIDILQYMTSSYFSRINAMVFNNIPEQELIDERGNRLGQRVPKTVPDHLLFQGTLLNGNVPVSCSFKGGKPTKKFTKNLVIDIHGTKGDLKLEGDAGFAEISNLVLYYSGTRANDFPLANGQQAPLDPGYDAGKEIMEVYHLRNYNAIVGNIHRLYQSISDFHFNTKKIPELPSQFVMQGFDFEGFPTLMDALILHRLIESVYKSNMMGSTLNVSNISHYSL
Consider B1, for which the binding result is on record as “binds”.

B2: Un-tagged Gal3 protein (natural protein, Saccharomyces cerevisiae, UniProt P13045 1-520, looked up)
chain: MNTNVPIFSSPVRDLPRSFEQKHLAVVDAFFQTYHVKPDFIARSPGRVNLIGEHIDYCDFSVLPLAIDVDMLCAVKILDEKNPSITLTNADPKFAQRKFDLPLDGSYMAIDPSVSEWSNYFKCGLHVAHSYLKKIAPERFNNTPLVGAQIFCQSDIPTGGGLSSAFTCAAALATIRANMGKNFDISKKDLTRITAVAEHYVGVNNGGMDQATSVYGEEDHALYVEFRPKLKATPFKFPQLKNHEISFVIANTLVKSNKFETAPTNYNLRVIEVTVAANALATRYSVALPSHKDNSNSERGNLRDFMDAYYARYENQAQPWNGDIGTGIERLLKMLQLVEESFSRKKSGFTVHEASTALNCSREEFTRDYLTTFPVRFQVLKLYQRAKHVYSESLRVLKALKMMTSATFHTDEDFFTDFGRLMNESQASCDKLYECSCIETNQICSIALANGSFGSRLTGAGWGGCTIHLVPSGANGNVEQVRKALIEKFYNVRYPDLTDEELKDAIIVSKPALGTCLYEQ
Regarding B2, the binding result is given as “binds”.
